According to paper PMC8701324, “Structural Insight into the Mechanism of PALB2 Interaction with MRG15” (Genes, 2021):

Each binder was assayed against MRG15 MRG domain, amino acids 155-323, Q9UBU8-2 (assay: competition assay (fluorescence anisotropy, displacement of FAM-PALB2 from MRG)). Details: chain shown with the change; 10 nM WT FAM-PALB2 peptide; parent: 9.8 ±2.6.
Chain of MRG15 MRG domain, amino acids 155-323, Q9UBU8-2 (Q9UBU8 194-362): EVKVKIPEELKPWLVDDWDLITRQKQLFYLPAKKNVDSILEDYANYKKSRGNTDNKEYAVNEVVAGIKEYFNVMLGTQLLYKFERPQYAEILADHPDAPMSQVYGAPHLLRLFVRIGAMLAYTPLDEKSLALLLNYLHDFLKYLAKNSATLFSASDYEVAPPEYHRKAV

MLSLKQLLSFLSITDFQLPDEDFGTLKLEKVKSC [WT PALB2^597-630 peptide P621T] was tested. Which Ki did it give?
The Ki was 1.7 nM.

MLSLKQLLSFLSITDFQLSDEDFGPLKLEKVKSC [WT PALB2^597-630 peptide P615S] was tested. Which Ki did it give?
The Ki was 52.8 nM.

With MLSLKQLLSFLSITDFQLPHEDFGPLKLEKVKSC [WT PALB2^597-630 peptide D616H] as the binder, how does the Ki read?
The Ki was 23.2 nM.
